Test: melting temperature; melt of duplexes
Details: sodium 0.0675 M; strand 1 µM

CGACGTGCTAAATGTGCTG+CAGCACATCGAGCACGTCG (((((((((..((((((((+))))))))..)))))))))
Tm: 51.8 °C

CGACGTGCTAAATGTGCTG+CAGCACATCGGGCACGTCG ((((((((...((((((((+))))))))...))))))))
Tm: 49.7 °C

CGACGTGCTAAATGTGCTG+CAGCACATCTGGCACGTCG ((((((((.(.((((((((+)))))))).).))))))))
Tm: 51.1 °C

CGACGTGCTAAATGTGCTG+CAGCACATGAAGCACGTCG (((((((((..((((((((+))))))))..)))))))))
Tm: 54.6 °C

CGACGTGCTAAATGTGCTG+CAGCACATGACGCACGTCG ((((((((...((((((((+))))))))...))))))))
Tm: 50.2 °C

CGACGTGCTAAATGTGCTG+CAGCACATGATGCACGTCG ((((((((...((((((((+))))))))...))))))))
Tm: 53.2 °C

CGACGTGCTAAATGTGCTG+CAGCACATGCAGCACGTCG (((((((((..((((((((+))))))))..)))))))))
Tm: 55.2 °C

CGACGTGCTAAATGTGCTG+CAGCACATGCTGCACGTCG ((((((((...((((((((+))))))))...))))))))
Tm: 50.1 °C

CGACGTGCTAAATGTGCTG+CAGCACATGGCGCACGTCG ((((((((...((((((((+))))))))...))))))))
Tm: 51.2 °C

CGACGTGCTAAATGTGCTG+CAGCACATGGTGCACGTCG ((((((((...((((((((+))))))))...))))))))
Tm: 49.9 °C

CGACGTGCTAAATGTGCTG+CAGCACATGTAGCACGTCG ((((((((((.((((((((+)))))))).))))))))))
Tm: 55.7 °C

CGACGTGCTAAATGTGCTG+CAGCACATGTTGCACGTCG ((((((((.(.((((((((+)))))))).).))))))))
Tm: 52.6 °C

CGACGTGCTAAATGTGCTG+CAGCACATTAGGCACGTCG ((((((((..(((((((((+)))))))))..))))))))
Tm: 53.8 °C

CGACGTGCTAAATGTGCTG+CAGCACATTATGCACGTCG ((((((((..(((((((((+)))))))))..))))))))
Tm: 53.1 °C

CGACGTGCTAAATGTGCTG+CAGCACATTGTGCACGTCG ((((((((..(((((((((+)))))))))..))))))))
Tm: 50.7 °C

CGACGTGCTAAATGTGCTG+CAGCACATTTGGCACGTCG ((((((((.((((((((((+)))))))))).))))))))
Tm: 57.9 °C

CGACGTGCTACATGTGCTG+CAGCACATAACGCACGTCG ((((((((...((((((((+))))))))...))))))))
Tm: 49 °C

CGACGTGCTACATGTGCTG+CAGCACATACCGCACGTCG ((((((((...((((((((+))))))))...))))))))
Tm: 47.5 °C

CGACGTGCTACATGTGCTG+CAGCACATACTGCACGTCG ((((((((...((((((((+))))))))...))))))))
Tm: 49.3 °C

CGACGTGCTACATGTGCTG+CAGCACATAGAGCACGTCG (((((((((..((((((((+))))))))..)))))))))
Tm: 52.5 °C

CGACGTGCTACATGTGCTG+CAGCACATATGGCACGTCG ((((((((.(.((((((((+)))))))).).))))))))
Tm: 51.3 °C

CGACGTGCTACATGTGCTG+CAGCACATCCCGCACGTCG ((((((((...((((((((+))))))))...))))))))
Tm: 47.4 °C

CGACGTGCTACATGTGCTG+CAGCACATCCTGCACGTCG ((((((((...((((((((+))))))))...))))))))
Tm: 48.3 °C

CGACGTGCTACATGTGCTG+CAGCACATCGAGCACGTCG (((((((((..((((((((+))))))))..)))))))))
Tm: 51.6 °C

CGACGTGCTACATGTGCTG+CAGCACATCGGGCACGTCG ((((((((...((((((((+))))))))...))))))))
Tm: 49.5 °C

CGACGTGCTACATGTGCTG+CAGCACATCGTGCACGTCG ((((((((...((((((((+))))))))...))))))))
Tm: 46.6 °C

CGACGTGCTACATGTGCTG+CAGCACATCTTGCACGTCG ((((((((.(.((((((((+)))))))).).))))))))
Tm: 49.3 °C

CGACGTGCTACATGTGCTG+CAGCACATGAAGCACGTCG (((((((((.(((((((((+))))))))).)))))))))
Tm: 58.3 °C

CGACGTGCTACATGTGCTG+CAGCACATGCAGCACGTCG (((((((((.(((((((((+))))))))).)))))))))
Tm: 58.1 °C

CGACGTGCTACATGTGCTG+CAGCACATGCGGCACGTCG ((((((((..(((((((((+)))))))))..))))))))
Tm: 54.1 °C

CGACGTGCTACATGTGCTG+CAGCACATGCTGCACGTCG ((((((((..(((((((((+)))))))))..))))))))
Tm: 52.8 °C

CGACGTGCTACATGTGCTG+CAGCACATGTAGCACGTCG (((((((((((((((((((+)))))))))))))))))))
Tm: 63.6 °C

CGACGTGCTACATGTGCTG+CAGCACATTACGCACGTCG ((((((((...((((((((+))))))))...))))))))
Tm: 48.7 °C

CGACGTGCTACATGTGCTG+CAGCACATTGAGCACGTCG (((((((((..((((((((+))))))))..)))))))))
Tm: 52.8 °C

CGACGTGCTACATGTGCTG+CAGCACATTGTGCACGTCG ((((((((...((((((((+))))))))...))))))))
Tm: 48.7 °C

CGACGTGCTACATGTGCTG+CAGCACATTTGGCACGTCG ((((((((.(.((((((((+)))))))).).))))))))
Tm: 51.1 °C

CGACGTGCTAGATGTGCTG+CAGCACATAACGCACGTCG ((((((((...((((((((+))))))))...))))))))
Tm: 49.9 °C

CGACGTGCTAGATGTGCTG+CAGCACATAAGGCACGTCG ((((((((...((((((((+))))))))...))))))))
Tm: 51.4 °C

CGACGTGCTAGATGTGCTG+CAGCACATAATGCACGTCG ((((((((...((((((((+))))))))...))))))))
Tm: 50.6 °C

CGACGTGCTAGATGTGCTG+CAGCACATAGTGCACGTCG ((((((((...((((((((+))))))))...))))))))
Tm: 46.1 °C

CGACGTGCTAGATGTGCTG+CAGCACATATAGCACGTCG ((((((((((.((((((((+)))))))).))))))))))
Tm: 57.6 °C

CGACGTGCTAGATGTGCTG+CAGCACATATTGCACGTCG ((((((((.(.((((((((+)))))))).).))))))))
Tm: 52.5 °C

CGACGTGCTAGATGTGCTG+CAGCACATCACGCACGTCG ((((((((..(((((((((+)))))))))..))))))))
Tm: 54.3 °C

CGACGTGCTAGATGTGCTG+CAGCACATCCAGCACGTCG (((((((((.(((((((((+))))))))).)))))))))
Tm: 56.1 °C

CGACGTGCTAGATGTGCTG+CAGCACATCCGGCACGTCG ((((((((..(((((((((+)))))))))..))))))))
Tm: 55.4 °C

CGACGTGCTAGATGTGCTG+CAGCACATCCTGCACGTCG ((((((((..(((((((((+)))))))))..))))))))
Tm: 54.7 °C

CGACGTGCTAGATGTGCTG+CAGCACATCGGGCACGTCG ((((((((..(((((((((+)))))))))..))))))))
Tm: 57 °C

CGACGTGCTAGATGTGCTG+CAGCACATCTAGCACGTCG (((((((((((((((((((+)))))))))))))))))))
Tm: 63.6 °C

CGACGTGCTAGATGTGCTG+CAGCACATCTTGCACGTCG ((((((((.((((((((((+)))))))))).))))))))
Tm: 58.7 °C

CGACGTGCTAGATGTGCTG+CAGCACATGCAGCACGTCG (((((((((..((((((((+))))))))..)))))))))
Tm: 53 °C

CGACGTGCTAGATGTGCTG+CAGCACATGCCGCACGTCG ((((((((...((((((((+))))))))...))))))))
Tm: 49.2 °C

CGACGTGCTAGATGTGCTG+CAGCACATGCGGCACGTCG ((((((((...((((((((+))))))))...))))))))
Tm: 50.3 °C

CGACGTGCTAGATGTGCTG+CAGCACATGCTGCACGTCG ((((((((...((((((((+))))))))...))))))))
Tm: 49.3 °C

CGACGTGCTAGATGTGCTG+CAGCACATGGGGCACGTCG ((((((((...((((((((+))))))))...))))))))
Tm: 51 °C

CGACGTGCTAGATGTGCTG+CAGCACATGTAGCACGTCG ((((((((((.((((((((+)))))))).))))))))))
Tm: 56.8 °C

CGACGTGCTAGATGTGCTG+CAGCACATGTTGCACGTCG ((((((((.(.((((((((+)))))))).).))))))))
Tm: 52.2 °C

CGACGTGCTAGATGTGCTG+CAGCACATTACGCACGTCG ((((((((...((((((((+))))))))...))))))))
Tm: 50.1 °C

CGACGTGCTAGATGTGCTG+CAGCACATTCAGCACGTCG (((((((((..((((((((+))))))))..)))))))))
Tm: 52.8 °C

CGACGTGCTAGATGTGCTG+CAGCACATTCGGCACGTCG ((((((((...((((((((+))))))))...))))))))
Tm: 52.1 °C

CGACGTGCTAGATGTGCTG+CAGCACATTCTGCACGTCG ((((((((...((((((((+))))))))...))))))))
Tm: 52.2 °C

CGACGTGCTATATGTGCTG+CAGCACATAAGGCACGTCG ((((((((..(((((((((+)))))))))..))))))))
Tm: 52.5 °C

CGACGTGCTATATGTGCTG+CAGCACATACGGCACGTCG ((((((((..(((((((((+)))))))))..))))))))
Tm: 50.7 °C

CGACGTGCTATATGTGCTG+CAGCACATATAGCACGTCG (((((((((((((((((((+)))))))))))))))))))
Tm: 61.3 °C

CGACGTGCTATATGTGCTG+CAGCACATATCGCACGTCG ((((((((.((((((((((+)))))))))).))))))))
Tm: 54.9 °C

CGACGTGCTATATGTGCTG+CAGCACATATTGCACGTCG ((((((((.((((((((((+)))))))))).))))))))
Tm: 56 °C

CGACGTGCTATATGTGCTG+CAGCACATCATGCACGTCG ((((((((...((((((((+))))))))...))))))))
Tm: 50.2 °C

CGACGTGCTATATGTGCTG+CAGCACATCCGGCACGTCG ((((((((...((((((((+))))))))...))))))))
Tm: 49 °C

CGACGTGCTATATGTGCTG+CAGCACATCCTGCACGTCG ((((((((...((((((((+))))))))...))))))))
Tm: 48.3 °C

CGACGTGCTATATGTGCTG+CAGCACATCGCGCACGTCG ((((((((...((((((((+))))))))...))))))))
Tm: 46.6 °C

CGACGTGCTATATGTGCTG+CAGCACATGAGGCACGTCG ((((((((...((((((((+))))))))...))))))))
Tm: 52 °C

CGACGTGCTATATGTGCTG+CAGCACATGCCGCACGTCG ((((((((...((((((((+))))))))...))))))))
Tm: 48.9 °C

CGACGTGCTATATGTGCTG+CAGCACATGCGGCACGTCG ((((((((...((((((((+))))))))...))))))))
Tm: 49.4 °C

From the array DNA melting data of Ke et al.
